Data from patent US20150217006A1, “AL-F-18-LABELED, AL-F-19-LABELED AND GA-68-LABELED GASTRIN-RELEASING PEPTIDE RECEPTOR (GRPR)-ANTAGONISTS FOR IMAGING OF PROSTATE CANCER” (Immunomedics, Inc., priority 2014, published 2015).

Molecular target: gastrin-releasing peptide receptor (GRPR) (human) (UniProt P30550)
Experiment: competition with 125I-BBN on PC-3 cells, repeat experiment, inhibitor 250 to 2 nM

Chain of gastrin-releasing peptide receptor (GRPR) (human) (P30550 whole entry): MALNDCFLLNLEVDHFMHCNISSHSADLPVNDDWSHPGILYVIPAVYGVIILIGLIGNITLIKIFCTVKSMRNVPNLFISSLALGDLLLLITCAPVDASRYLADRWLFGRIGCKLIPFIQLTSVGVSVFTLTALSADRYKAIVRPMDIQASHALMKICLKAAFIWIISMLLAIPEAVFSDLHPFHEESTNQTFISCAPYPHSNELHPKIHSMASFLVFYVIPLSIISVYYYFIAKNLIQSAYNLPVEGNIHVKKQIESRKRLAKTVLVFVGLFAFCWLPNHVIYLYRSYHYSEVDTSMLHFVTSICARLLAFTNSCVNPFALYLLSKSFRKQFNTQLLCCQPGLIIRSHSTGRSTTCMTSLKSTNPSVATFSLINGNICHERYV

IC50: 24.4 nM
Substance: commercially available BBN peptide
